Assay: yeast display, Sf9 membrane polyspecificity reagent, FACS + sequencing; frameworks hold sequencing errors
How it was run: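 Sorting gates, low and high (top ~1%), were placed on anti-HA fluorescence to track expression and on streptavidin fluorescence to track reagent binding. A clone's polyreactivity label is taken from the gate it came out of. The reagent was 10% biotinylated, detergent-solubilized Sf9 membrane, applied for 1 hour at 4 °C to galactose-induced yeast display cells.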

| Sequence | polyreactivity (PSR sort gate) |
| --- | --- |
| EEELVESGGGLVQAGGSLRLSCAASGSTFVSNAMGWYRQAPGKERELVAAISSSGGSTYYADSVKGRFTISRDNAKNTVYLQMNSLKPEDTAVYYCVDYYIGYTHNYNYWGQGTQVTVSS | low polyreactivity |
| EEELVESGGGLVQAGGSLRLSCSASGSTFLVYSMGWYRQAPGKERELVAVITNSTVRTYYADSVKGRFTISRDNAKNTVYLQMDRLKPEDTAVYYCNADKEFAVLGQGMDYWGQGTQVTVSS | low polyreactivity |
| EVQLVESGGGLVQAGGSLRLSCAASVSTFGSNAMGWYRQAPGKERELVAAITNGGSTNYADSVKGRFTISRDNEKNTVYLQMNSLKPEDTAVYYCNAVQSAYNKFWIALWGGYWGQGTQVTVSS | low polyreactivity |
| HAQLQESGGGLVQAGGSLRRSCAASGSIFRFSGMGWYRLAPGKERELVASIGFGSITYYADRVNGRFTISRDNANNTVYLQMNSLKPEDTAVYYCAVQVQDESWLDYWGQGTQVTVSC | low polyreactivity |
| HAQLQESGVGLVQAGGSLRRSCAASGSIFRFSGMGWYRRATGKERELVASIGFGSITYYADRVKVRFTISRDNANNTVYLQMTSLKPEDTAVYYCAVQVQDESWLDYWGQGTQVTVSC | low polyreactivity |
| HVKLVDSGGGLVKAGGSLRLTCAASGITIYTNDMGWSRQARGKERELVAAITTNDGDTYYADSVKGRFTISRDNEKNTVYLQMNSLKPEDNAVYYCAADSGSTSEYEYWGQGTQVTVSS | low polyreactivity |
| HVQHVESGGGLVQAGGSLRLSCAASGRTFGYYALGWYRQAPGKERELVARISTRGGSTNYADSVKGRFTISRDNAKNTVFLQMNSLKPEDTAVYSCYARGGYGGGYDYWVQGTQVTVSS | high polyreactivity |
| HVQIVESGRGLVPAGGSLRLSCAASGFIFIRYSMGWSRQAPGKERELVAVISSGGGSTDYADSVKGRFTISRDYAKNTVFLQMISLKPEDTAVYYCAADFLPTYDPYYFWGQGTQVSVSS | low polyreactivity |
| HVQLEESGGGLVQAGGSLRLSCAASGRIFYPYAMGWYRQAPGKERELVAAISRSGGSTYYADSVKGRFTISRDNAKNTVYLQMNSLKPEDTAVYYCATGFYRAISHHGYDYWGQGTQVTVSS | low polyreactivity |
| HVQLGESGGGLVQAGGSLRLSCAASGRISVFYTMGGYRQAPGKEREMVAVIRTSGGRTNYADSVKGRFTISRDNAKNTVYLQMNSLKPEDTAVYYCAARVVRYGYKYYYWGQGTQVTVSS | low polyreactivity |
| HVQLLESGGGLVQAGGSLRLSCAASGSTFVYYAMGWYRQAPGKERELVAVITRGGRTYYADSVKGRFTISRDNAKTTVYLQMNSVKPEDSEVYYCNKVTPIYHDTVLDYWGQGTQVTVSS | high polyreactivity |
| HVQLQESGGGLVQAGGSLRLSCAASGNISYSRNMGWYRQAQGKERELVAAIDRGAITYYADSVKGRFTISRDNAKNTVDLQIYSLNPEDTAVYYCAAEYHDRWDHRYWGQGTQVTVSS | high polyreactivity |
| HVQLQESGGGLVQAGGSLRLSCAASGSIFQATYMGWYRQAPGKEREFVASITNGSITNYADSVKGRFTIGRDNEKDTLYLQMNSLKPEDSAVYYCAVDRQYIPAFHYWGQGTQVTVSS | low polyreactivity |
| HVQLQESGGGLVQAGGSLRLSCAASGSIFQATYMGWYRQAPGKEREFVASITYGSITNYADSVKGRFTIGRDNAKDTLYLQMNSLKPEDTAVYYCAVDRHYIPDFHYWGQGTQVTVSS | low polyreactivity |
| HVQLQESGGGLVQAGGSLRLSCAASGSIYQATYMGWYRQAPGKEREFVASITYGSITNYADSVKGRFTIGRDNANDTLYLQMNSLKPEDTAVYYCSVDRHYYWGQGTQVTVST | low polyreactivity |
| HVQLQESGGGLVQAGVSLRLSCAASGNISYSRNMGWYRQAPGKERELVAAIDRGAITYYADSVKGRFTISRDNAKNTVYLQIYSLKPEDTAVYYCAAEYHDRWDHRYWGQGTQVTVSS | high polyreactivity |
| HVQLQESGGGLVQEGGSLRLSCAASGSIFQATYMGWYRQAPGKELEFVASITYGSITNYADSVKGSFTIGRDNAKDTLYLQMNSLKPEDTAVYYCAVDRHYIPDFHYWGQGTQVTVSS | low polyreactivity |
